Data on one substance can be found in publication PMC9597087.

This assay deals with microtubules (human (endogenous in U2-OS)) (UniProt Q71U36). The experiment in a line: FRAP (fluorescence recovery after photobleaching); living U2-OS cells 48h after transfection, interphase, no STLC; 1.5 um^2 areas bleached, spinning disk confocal; traces analysed with easyFRAP, normalised to pre-bleaching intensity.

As to “GFP-tagged Eg5(T107N) (from UniProt P52732 1-1056) (natural protein)”, the mobility fraction (FRAP) was determined as 0.06.
